# Data: IntAct's records for PubMed 18477474
# B1: Ras-related protein Rab-38 (Mus musculus), Q8QZZ8 (parent)
# chain: MQTPHKEHLYKLLVIGDLGVGKTSIIKRYVHQNFSSHYRATIGVDFALKVLHWDPETVVRLQLWDIAGQERFGNMTRVYYREAMGAFIVFDVTRPATFEAVAKWKNDLDSKLTLPNGKPVSVVLLANKCDQGKDVLMNNGLKMDQFCKEHGFVGWFETSAKENINIDEASRCLVKHILANECDLLESIEPDIVKPHLTSPKVVSCSGCAKS
# partner: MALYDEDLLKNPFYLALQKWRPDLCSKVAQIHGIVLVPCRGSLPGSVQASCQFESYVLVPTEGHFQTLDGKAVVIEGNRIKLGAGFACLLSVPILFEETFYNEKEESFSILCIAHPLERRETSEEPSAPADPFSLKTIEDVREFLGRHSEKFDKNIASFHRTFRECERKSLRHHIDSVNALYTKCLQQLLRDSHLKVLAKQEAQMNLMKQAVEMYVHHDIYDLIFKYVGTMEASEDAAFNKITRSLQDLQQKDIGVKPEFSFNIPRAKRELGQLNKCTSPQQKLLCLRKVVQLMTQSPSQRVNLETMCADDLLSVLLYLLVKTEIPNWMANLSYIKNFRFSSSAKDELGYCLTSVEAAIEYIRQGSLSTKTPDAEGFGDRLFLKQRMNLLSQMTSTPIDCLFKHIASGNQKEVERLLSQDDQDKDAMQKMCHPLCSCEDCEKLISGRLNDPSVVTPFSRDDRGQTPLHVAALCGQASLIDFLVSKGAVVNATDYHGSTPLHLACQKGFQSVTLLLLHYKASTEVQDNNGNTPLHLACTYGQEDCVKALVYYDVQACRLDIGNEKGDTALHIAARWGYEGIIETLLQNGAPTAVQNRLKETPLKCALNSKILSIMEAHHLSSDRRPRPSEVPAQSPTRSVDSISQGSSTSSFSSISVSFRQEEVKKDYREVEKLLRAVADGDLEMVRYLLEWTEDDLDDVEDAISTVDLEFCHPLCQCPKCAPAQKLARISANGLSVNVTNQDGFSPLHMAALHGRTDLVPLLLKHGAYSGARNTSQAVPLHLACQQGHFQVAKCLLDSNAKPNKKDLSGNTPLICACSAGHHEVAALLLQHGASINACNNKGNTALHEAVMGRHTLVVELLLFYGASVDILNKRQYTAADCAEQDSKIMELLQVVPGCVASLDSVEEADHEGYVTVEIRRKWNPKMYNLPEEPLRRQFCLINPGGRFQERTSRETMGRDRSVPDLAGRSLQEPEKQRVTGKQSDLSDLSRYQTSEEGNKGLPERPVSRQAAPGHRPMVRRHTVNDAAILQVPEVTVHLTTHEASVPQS
# Variants of: B1
# Details: with anr27_mouse Ankrd27, Q3UMR0
row,effect of a mutation on the interaction,Variant
1,disrupting interaction,MQTPHKEHLYKLLVIGDLGVGKNSIIKRYVHQNFSSHYRATIGVDFALKVLHWDPETVVRLQLWDIAGQERFGNMTRVYYREAMGAFIVFDVTRPATFEAVAKWKNDLDSKLTLPNGKPVSVVLLANKCDQGKDVLMNNGLKMDQFCKEHGFVGWFETSAKENINIDEASRCLVKHILANECDLLESIEPDIVKPHLTSPKVVSCSGCAKS [T23N]
